For this test, the target named is T1, BS69 coiled-coil MYND domain (BS69_(CC-MYND), amino acids 480-602) (human, UniProt Q15326 480-602).
T1 chain: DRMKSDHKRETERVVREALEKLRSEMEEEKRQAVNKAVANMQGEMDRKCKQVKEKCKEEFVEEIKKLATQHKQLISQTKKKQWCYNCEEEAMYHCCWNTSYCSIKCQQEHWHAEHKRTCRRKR
As to the kind of experiment: ITC. On the technique in general: Isothermal titration calorimetry measures the heat released or taken up as one component is titrated into another.

B1: type 1 EBNA2 polypeptide T1 EBNA2_(381-455) (domain or fragment)
chain: SMPELSPVLGLHQGQGAGDSPTPGPSNAAPVCRNSHTATPNVSPIHEPESHNSPEAPILFPDDWYPPSIDPADLD
The Kd is the constant that tells how readily two partners part at equilibrium. Read a low Kd as tighter binding. B1 returned a Kd of 730 nM.

The record behind these values is PMC6638984 (2019).
